Test results taken from paper PMC10322906.

Biological target: CXCR4-Tango
Test: Tango (TEV-cleavage luciferase reporter of arrestin recruitment); Tango-Trio, basal: HTTL-B1 / HTTL-B2 cells transfected with GPCR-Tango constructs, with against without cumate (30 µg/mL) or cumate dose-response, no agonist; in Fig. 7 also with inverse agonists/antagonists at EC80

fold change in constitutive β-arrestin-2 recruitment (with against without cumate): 67 fold
Substance: β-arrestin2-TEV219 (from UniProt P32121 1-409) (natural protein)
